Source: US9486502B2, “Methods of administering interferon gamma to absorb fluid from the subretinal space” (The United States of America, as represented by the …, priority 2008, dated 2016)
“Also recorded” adds a separate entry of the source.

Experiments:
hfRPE cells = experiment: JC-1 staining of mitochondrial membrane potential; type: cell-based, human
Experimental: Mitochondrial membrane potential change (w) was assessed in live hfRPE cells using the lipophilic cationic probe 5,5′,6,6′-tetrachloro-1,1′3,3′-tetraethylbenzimidazol-carbocyanine iodide (JC-1) following the manufacturer's instructions and as described in Voloboueva, L. A., et al., Invest Ophthalmol Vis Sci, 2005, 46, 4302-4310, incorporated herein by reference in its entirety. Confluent monolayers of hfRPE were treated with different concentrations of IFNγ (0.5, 5, 50 ng/ml) for 24, 48, or 72 hours and then incubated with JC-1 solution for 30 minutes at 37° C. Fluorescence was evaluated with a Zeiss Axiovert 25 inverted microscope.

hfRPE = experiment: quantitative real-time PCR of gene expression in IFNγ-treated hfRPE; type: cell-based, human; settings: for Threshold Cycle (Ct) CFTR / Threshold Cycle (Ct) IFNGR1 / Threshold Cycle (Ct) IFNGR2 / Threshold Cycle (Ct) IRF-1 / Threshold Cycle (Ct) IRF-2 / Threshold Cycle (Ct) PIAS1 / Threshold Cycle (Ct) SOCS3 / Threshold Cycle (Ct) STAT1 / Threshold Cycle (Ct) NOS2A / Threshold Cycle (Ct) IRF-8: IFNγ 25 ng/ml
Experimental: qRT-PCR was performed as previously described in Li, R. et al., 2007, Invest Ophthalmol Vis Sci, 48, 5722-5732—incorporated by reference in its entirety herein. Confluent monolayers of hfRPE cultured in 24-well plates were treated with IFNγ (25 ng/ml) in SFM and harvested at 0 minutes, 30 minutes, 2 hours, 6 hours, 15 hours and 24 hours, in triplicate for each time point. 1 μg total mRNA isolated from the harvested cells (RNeasy Kit, Qiagen) was reverse-transcribed (SuperScript® III First-Strand Synthesis System for RT-PCR, Invitrogen). Real-time PCR (TagMan®, Applied Biosystems) was used to quantify expression of the interferon regulatory factors IRF-1, IRF-2, and IRF-8; signal transducer and activator of transcription 1 (STAT1); suppressor of cytokine signaling 3 (SOCS3); protein inhibitor of activated STAT1 (PIAS1); inducible nitric oxide synthase (NOS2A); IFNγ receptor subunit R1 (IFNGR1); IFNα receptor subunit R1 (IFNAR1); IFNγ receptor subunit R2 (IFNGR2); cystic fibrosis transmembrane conductance regulator (CFTR); and Glyceraldehyde 3-phosphate dehydrogenase (GAPDH). The mRNA concentration of each gene was normalized against GAPDH. qRT-PCR was performed on the ABI Sequence Detection System 7900 (Applied Biosystems).

B1: IFNγ: pleiotropic cytokine produced by T- and NK-cells; obtained from Peprotech (protein, UniProt P01579 24-161, looked up)
Interferon gamma: QDPYVKEAENLKKYFNAGHSDVADNGTLFLGILKNWKEESDRKIMQSQIVSFYFKLFKNFKDDQSIQKSVETIKEDMNVKFFNSNKKKRDDFEKLTNYSVTDLNVQRKAIHELIQVMAELSPAAKTGKRKRSQMLFRG
mitochondrial membrane potential (JC-1) (hfRPE cells; 24 or 48 hour time points): no significant differences
mitochondrial membrane potential (JC-1 aggregate fluorescence) (hfRPE cells; IFNγ 0.5, 5, 50 ng/ml, 72 hours): dose-dependent decrease
IRF-2 mRNA fold change (hfRPE; 25 ng/ml IFNγ, hfRPE): 3 fold
up-regulation of IRF-1 transcription (hfRPE; 25 ng/ml IFNγ, hfRPE): > 400 fold
up-regulation of STAT1 transcription (hfRPE; 25 ng/ml IFNγ, hfRPE): > 30 fold
Threshold Cycle (Ct) CFTR (hfRPE; 0 hr): 38.0
Threshold Cycle (Ct) IFNGR1 (hfRPE; 0 hr): 26.4
Threshold Cycle (Ct) IFNGR2 (hfRPE; 0 hr): 26.0
Threshold Cycle (Ct) IRF-1 (hfRPE; 0 hr): 31.1
Threshold Cycle (Ct) IRF-2 (hfRPE; 0 hr): 27.6
Threshold Cycle (Ct) PIAS1 (hfRPE; 0 hr): 27.0
Threshold Cycle (Ct) SOCS3 (hfRPE; 0 hr): 26.9
Threshold Cycle (Ct) STAT1 (hfRPE; 0 hr): 26.2
Threshold Cycle (Ct) CFTR (hfRPE; 0.5 hr): 36.9
Threshold Cycle (Ct) IFNGR1 (hfRPE; 0.5 hr): 26.4
Threshold Cycle (Ct) IFNGR2 (hfRPE; 0.5 hr): 26.0
Threshold Cycle (Ct) IRF-1 (hfRPE; 0.5 hr): 27.4
Threshold Cycle (Ct) IRF-2 (hfRPE; 0.5 hr): 27.6
Threshold Cycle (Ct) NOS2A (hfRPE; 0.5 hr): 39.1
Threshold Cycle (Ct) PIAS1 (hfRPE; 0.5 hr): 26.9
Threshold Cycle (Ct) SOCS3 (hfRPE; 0.5 hr): 25.4
Threshold Cycle (Ct) STAT1 (hfRPE; 0.5 hr): 25.8
Threshold Cycle (Ct) CFTR (hfRPE; 2 hr): 37.3
Threshold Cycle (Ct) IFNGR1 (hfRPE; 2 hr): 26.4
Threshold Cycle (Ct) IFNGR2 (hfRPE; 2 hr): 25.1
Threshold Cycle (Ct) IRF-1 (hfRPE; 2 hr): 22.2
Threshold Cycle (Ct) IRF-2 (hfRPE; 2 hr): 26.0
Threshold Cycle (Ct) IRF-8 (hfRPE; 2 hr): 30.9
Threshold Cycle (Ct) NOS2A (hfRPE; 2 hr): 35.9
Threshold Cycle (Ct) PIAS1 (hfRPE; 2 hr): 27.2
Threshold Cycle (Ct) SOCS3 (hfRPE; 2 hr): 24.6
Threshold Cycle (Ct) STAT1 (hfRPE; 2 hr): 22.1
Threshold Cycle (Ct) CFTR (hfRPE; 6 hr): 38.5
Threshold Cycle (Ct) IFNGR1 (hfRPE; 6 hr): 26.3
Threshold Cycle (Ct) IFNGR2 (hfRPE; 6 hr): 24.7
Threshold Cycle (Ct) IRF-1 (hfRPE; 6 hr): 22.3
Threshold Cycle (Ct) IRF-2 (hfRPE; 6 hr): 25.6
Threshold Cycle (Ct) IRF-8 (hfRPE; 6 hr): 31.1
Threshold Cycle (Ct) NOS2A (hfRPE; 6 hr): 31.6
Threshold Cycle (Ct) PIAS1 (hfRPE; 6 hr): 27.1
Threshold Cycle (Ct) SOCS3 (hfRPE; 6 hr): 24.0
Threshold Cycle (Ct) STAT1 (hfRPE; 6 hr): 21.0
Threshold Cycle (Ct) IFNGR1 (hfRPE; 15 hr): 26.5
Threshold Cycle (Ct) IFNGR2 (hfRPE; 15 hr): 25.1
Threshold Cycle (Ct) IRF-1 (hfRPE; 15 hr): 22.3
Threshold Cycle (Ct) IRF-2 (hfRPE; 15 hr): 26.0
Threshold Cycle (Ct) IRF-8 (hfRPE; 15 hr): 32.0
Threshold Cycle (Ct) NOS2A (hfRPE; 15 hr): 32.7
Threshold Cycle (Ct) PIAS1 (hfRPE; 15 hr): 26.8
Threshold Cycle (Ct) SOCS3 (hfRPE; 15 hr): 24.8
Threshold Cycle (Ct) STAT1 (hfRPE; 15 hr): 21.3
Threshold Cycle (Ct) CFTR (hfRPE; 24 hr): 37.9
Threshold Cycle (Ct) IFNGR1 (hfRPE; 24 hr): 26.3
Threshold Cycle (Ct) IFNGR2 (hfRPE; 24 hr): 25.2
Threshold Cycle (Ct) IRF-1 (hfRPE; 24 hr): 22.2
Threshold Cycle (Ct) IRF-2 (hfRPE; 24 hr): 26.1
Threshold Cycle (Ct) IRF-8 (hfRPE; 24 hr): 31.9
Threshold Cycle (Ct) NOS2A (hfRPE; 24 hr): 33.5
Threshold Cycle (Ct) PIAS1 (hfRPE; 24 hr): 26.7
Threshold Cycle (Ct) SOCS3 (hfRPE; 24 hr): 24.9
Threshold Cycle (Ct) STAT1 (hfRPE; 24 hr): 21.2
SOCS3 mRNA levels (hfRPE; IFNγ-treated hfRPE): increased
effect on CFTR mRNA expression (hfRPE; IFNγ-treated hfRPE): No effect; also recorded: small decrease
effect on IFNGR1 expression (hfRPE; IFNγ-treated hfRPE): No effect
effect on PIAS1 expression (hfRPE; IFNγ-treated hfRPE): No effect; also recorded: does not affect
increase of SOCS3 mRNA (hfRPE; IFNγ-treated hfRPE): 7 fold
IRF-8 mRNA detectability (hfRPE; after 2 hours of IFNγ, constitutive level under detection): became detectable
increase in IFNGR2 expression (hfRPE; after 6 hours of IFNγ): ≈ 2 fold
NOS2A expression (hfRPE; after 6 hours of IFNγ, constitutive levels undetectable): significantly up-regulated
